Experiment [1] addresses PD-L1 on PD-L1 target cells (Homo sapiens (Human)) (UniProt Q9NZQ7). Kind of experiment: cell-based or functional assay.
Experiment [2] deals with T1, human PD-L1-Fc protein (human, UniProt Q9NZQ7 19-238).
T1 construct: coating antigen of the ELISAs; also called rhPD-L1-Fc; not shown: Fc
Kind of experiment: receptor blocking ELISA: coated human PD-L1-Fc, blocked ligand biotin-labeled human CD80-Fc (Bio-CD80), OD 450nm; upper right panel. How it is done: (§1) Briefly, microtiter plates were coated with human PD-L1-Fc protein at 0.5 μg/ml in PBS, 100 μl/well at 4° C. overnight, then blocked with 150 μl/well of 1% BSA at 37° C. for 2 hours. […] The plates were washed with PBS/Tween and then incubated with Streptavidin-HRP for 10 mins at 37° C. After washing, the plates were developed with TMB substrate and analyzed by spectrophotometer at OD 450 nm.

The target in experiment [3] is T2, human PD-L1-his tag protein (human, UniProt Q9NZQ7 19-238).
T2 construct: also called human PD-L1-His protein; recombinant PD-L1 protein; not shown: his tag
The experiment in a line: SPR (Biacore), affinity ranking, PDL1-His.

Experiment [4] has as its target T1, human PD-L1-Fc protein. The experiment in a line: receptor blocking ELISA: coated human PD-L1-Fc, blocked ligand biotin-labeled human PD-1-Fc (Bio-PD1), OD 450nm; upper right panel. Here is the method:
as §1

In experiment [5] the target is T3, human PD-L1 over-expressed on CHOK1 cells (human, UniProt Q9NZQ7 19-290).
T3 construct: whole, on cells; also called PDL1-CHOK1 cells
Kind of experiment: flow cytometry (MFI) on PDL1-CHOK1 cells; lower right panel. Here is the method: (§2) To evaluate the antigen binding property, the humanized antibodies were analyzed for their binding to PD-L1 overexpressed on mammalian cells by FACS. Briefly, PDL1-CHOK1 cells were firstly incubated with 3-fold serious diluted humanized antibodies starting at 15 μg/ml at 4° C. for 40 mins. After washed by PBS, the Alexa Fluor® 647 AffiniPure Goat Anti-Human IgG (H+L) antibody was added to each well and incubated at 4° C. for 30 mins. The MFI of Alexa Fluor® 647 was evaluated by FACSCanto.

Experiment [6] concerns the target T2, human PD-L1-his tag protein. The experiment in a line: SPR (Biacore T200), mAb captured on Protein A chip, PD-L1-his injected. How it is done:
The binding of the humanized antibodies to recombinant PD-L1 protein (human PD-L1-his tag) was tested by Biacore using a capture method. […] A serial dilution of human PD-L1-his tag protein was injected over captured antibody for 2 mins at a flow rate of 30 μl/min. The antigen was allowed to dissociate for 1500 s. All the experiment were carried out on a Biacore T200.

In experiment [7] the target is T1, human PD-L1-Fc protein. The experiment in a line: ELISA, antibody titrated on coated human PD-L1-Fc, OD 450nm; upper right panel. Here is the method: (§3) To evaluate antigen binding activity, the humanized antibodies were subjected to ELISA test. Briefly, microtiter plates were coated with human PD-L1-Fc protein at 0.5 μg/ml in PBS, 100 μl/well at 4° C. overnight, then blocked with 200 μl/well of 1% BSA. Three-fold dilutions of humanized antibodies starting from 10 μg/ml were added to each well and incubated for 1 hour at 37° C. The plates were washed with PBS/Tween and then incubated with mouse-anti-human IgG Fab antibody conjugated with Horse Radish Peroxidase (HRP) for 1 hour at 37° C. After washing, the plates were developed with TMB substrate and analyzed by spectrophotometer at OD 450 nm.

Experiment [8] concerns the target T1, human PD-L1-Fc protein. Kind of experiment: receptor blocking ELISA: coated human PD-L1-Fc, blocked ligand biotin-labeled human CD80-Fc (Bio-CD80), OD 450nm; lower left panel. Here is the method:
as §1

In experiment [9] the target is T1, human PD-L1-Fc protein. The experiment in a line: receptor blocking ELISA: coated human PD-L1-Fc, blocked ligand biotin-labeled human PD-1-Fc (Bio-PD1), OD 450nm; lower left panel. Here is the method: as §1
Experiment [10] deals with T1, human PD-L1-Fc protein. The experiment in a line: ELISA, antibody titrated on coated human PD-L1-Fc, OD 450nm; upper left panel. Here is the method: as §3
Experiment [11] addresses T1, human PD-L1-Fc protein. The experiment in a line: receptor blocking ELISA: coated human PD-L1-Fc, blocked ligand biotin-labeled human CD80-Fc (Bio-CD80), OD 450nm; upper left panel. How it is done:
as §1

The target in experiment [12] is T1, human PD-L1-Fc protein. The experiment in a line: receptor blocking ELISA: coated human PD-L1-Fc, blocked ligand biotin-labeled human PD-1-Fc (Bio-PD1), OD 450nm; upper left panel. How it is done: as §1
Experiment [13] addresses T3, human PD-L1 over-expressed on CHOK1 …. Kind of experiment: flow cytometry (MFI) on PDL1-CHOK1 cells; upper right panel. Here is the method: as §2
The target is the same in experiment [14]. The experiment in a line: flow cytometry (MFI) on PDL1-CHOK1 cells; upper left panel. Here is the method:
as §2

For experiment [15], the target named is T1, human PD-L1-Fc protein. The experiment in a line: ELISA, antibody titrated on coated human PD-L1-Fc, OD 450nm; lower left panel. Here is the method:
as §3

The source of these data is patent US20230287125A1 (LEPU BIOPHARMA, published 2023).

Changes are numbered by the printed parent chain.

T3 sequence (Q9NZQ7 19-290): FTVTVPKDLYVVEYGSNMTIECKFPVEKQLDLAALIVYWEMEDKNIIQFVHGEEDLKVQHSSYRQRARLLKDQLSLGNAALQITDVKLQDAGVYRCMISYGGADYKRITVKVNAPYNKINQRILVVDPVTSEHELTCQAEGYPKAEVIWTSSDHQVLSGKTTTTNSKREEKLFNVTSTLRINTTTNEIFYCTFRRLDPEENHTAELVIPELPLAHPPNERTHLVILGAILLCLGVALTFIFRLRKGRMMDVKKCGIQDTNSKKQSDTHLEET
T1 sequence (Q9NZQ7 19-238 limits assumed): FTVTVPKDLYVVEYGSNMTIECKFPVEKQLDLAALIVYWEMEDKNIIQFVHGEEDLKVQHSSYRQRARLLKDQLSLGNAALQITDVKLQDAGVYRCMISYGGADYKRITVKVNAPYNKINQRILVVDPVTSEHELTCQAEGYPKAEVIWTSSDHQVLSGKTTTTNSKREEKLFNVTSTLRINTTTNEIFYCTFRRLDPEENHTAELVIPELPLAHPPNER
T2 sequence (Q9NZQ7 19-238 limits assumed): as above
Chain of PD-L1 on PD-L1 target cells (Homo sapiens (Human)) (Q9NZQ7 19-290 limits assumed): as the sequence (Q9NZQ7 19-290) above

As to “MPDL3280A (Atezolizumab), Human IgG1 (N297A)-Fc (antibody)”, the EC50, NFAT-RE-mediated luminescence, PD1 effector cells co-cultured with PD-L1 target cells in [1] is 0.133 nM.

B1: Hu89C10H8-7 (antibody, V domains shown)
VH: EVQLVESGGGLVKPGGSLRLSCAASGFTFSNYWMTWIRQAPGKGLEWVASITNTGSSTFYPDSVKGRFTISRDNAKNSLYLQMNSLRAEDTAVYYCTRDTTIAPFDYWGQGTMVTVSS
VL: DIQMTQSPSSLSASVGDRVTITCKASQNLNEYLNWYQQKPGKAPKRLIYKTNTLQAGIPSRFSGSGSGTDYTLTISSLQPEDFATYYCSQYNSGNTFGQGTKLEIK
notes: humanized
With B1, the IC50 is 0.285 mg/L in [2] and 0.114 mg/L in experiment [4]. Besides, the results for the Kd in experiment [3] and in experiment [6] were 0.107 nM and 0.0935 nM, respectively. Besides, the koff in experiment [3] came out at 6.61e-05 s⁻¹; in experiment [6], 5.31e-05 s⁻¹. Further, the association rate constant (kon) in experiment [3] amounted to 615000 M⁻¹ s⁻¹; in [6], 568000 M⁻¹ s⁻¹. The EC50 in experiment [5] came out at 0.1 nM; in [7], 0.00705 mg/L.

B2: Hu89C10H8-11 (antibody, V domains shown)
VH: B1 VH
VL: B1 VL with T69I
notes: humanized
In the case of B2, the concentration for half-maximal inhibition (IC50) in [8] worked out at 0.275 mg/L; in [9], 0.11 mg/L. Further, the Kd turned out to be 0.0961 nM in [3] and 0.0983 nM in experiment [6]. In addition, the koff came out at 6.73e-05 s⁻¹ in experiment [3] and 5.54e-05 s⁻¹ in [6]. Besides, the kon is 700000 M⁻¹ s⁻¹ in [3] and 564000 M⁻¹ s⁻¹ in experiment [6]. For the same molecule, the EC50 in [5] is 0.151 nM; in [7], 0.00878 mg/L.

B3: Hu89C10H8-4 (antibody, V domains shown)
VH: B1 VH with N77S
VL: B1 VL with I58V
notes: humanized
As for B3, the EC50 in experiment [10] is 0.00683 mg/L; in experiment [5] it was 0.127 nM. Moreover, the IC50 worked out at 0.353 mg/L in experiment [11] and 0.111 mg/L in [12]. Moreover, the Kd in experiment [3] was determined as 0.0954 nM; in experiment [6], 0.0962 nM. For the same molecule, the koff in [3] worked out at 5.94e-05 s⁻¹; in experiment [6], 5.41e-05 s⁻¹. For the same molecule, the kon was determined as 623000 M⁻¹ s⁻¹ in [3] and 562000 M⁻¹ s⁻¹ in experiment [6].

B4: Hu67F3G7-2 (antibody, V domains shown)
VH: EVQLVQSGAEVKKPGASVKVSCKASGYTFTDFWVSWVRQAPGQGLEWMGEIYPNSGVSRYNEKFKGRVTMTVDKSISTAYMELSRLRSDDTAVYYCTKYFGYTYWFGYWGQGTLVTVSS
VL: DIQMTQSPSSLSASVGDRVTITCRASKSVSTYMHWYQQKPGKAPKLLIYSASHLESGVPSRFSGSGSGTDFTLTISSLQPEDFATYYCQQSNELPVTFGGGTKVEIK
notes: humanized
For the molecule B4, the figures for the 50% effective concentration (EC50) in experiment [10] and in experiment [13] were 0.0132 mg/L and 0.108 nM, respectively. Also, the IC50 in [11] turned out to be 0.282 mg/L; in [12], 0.109 mg/L. In addition, the results for the Kd in [3] and in experiment [6] were 0.0379 nM and 0.0367 nM, respectively. The koff in experiment [3] stood at 9.75e-05 s⁻¹; in experiment [6], 7.03e-05 s⁻¹. Moreover, the kon in experiment [3] was determined as 2.57e+06 M⁻¹ s⁻¹; in [6] it was 1.92e+06 M⁻¹ s⁻¹.

B5: Hu67F3G7-3 (antibody, V domains shown)
VH: B4 VH with T28I, M48I
VL: B4 VL
notes: humanized
In the case of B5, the half-maximal effective concentration (EC50) in experiment [10] was determined as 0.0232 mg/L; in experiment [13], 0.167 nM. For the same molecule, the IC50 in experiment [2] is 0.495 mg/L; in [4], 0.158 mg/L. Moreover, the Kd in experiment [3] is 0.0347 nM; in experiment [6] it was 0.0371 nM. Besides, the koff was 9.72e-05 s⁻¹ in experiment [3] and 7.74e-05 s⁻¹ in experiment [6]. Besides, the kon stood at 2.8e+06 M⁻¹ s⁻¹ in experiment [3] and 2.09e+06 M⁻¹ s⁻¹ in [6].

B6: Hu47C6A3-2 (antibody, V domains shown)
VH: QVQLQESGPGLVKPSETLSLTCTVSGYSITSDYAWNWIRQPPGKGLEWIGYIIYSGSTSYNPSLKSRVTISRDTSKNQFSLKLSSVTAADTAVYYCARSTMIATNWFAYWGQGTLVTVSS
VL: DIQMTQSPSSLSASVGDRVTITCKASQDVSLAVAWYQQKPGKAPKLLIYWASTRHTGVPSRFSGSGSGTDFTLTISSLQPEDFATYYCQQHYITPWTFGGGTKVEIK
notes: humanized
As to B6, the EC50 in [14] worked out at 0.175 nM. For the same molecule, the IC50 in experiment [2] came out at 0.165 mg/L. The same molecule registered a 50% inhibitory concentration (IC50) in experiment [4] of 0.0354 mg/L. Also, in [6], the Kd is 0.367 nM, the koff was 0.0009 s⁻¹ and the kon came out at 2.45e+06 M⁻¹ s⁻¹. Moreover, the EC50 in experiment [7] came out at 0.0117 mg/L.

B7: Hu47C6A3-3 (antibody, V domains shown)
VH: B6 VH with I49M, V68I
VL: B6 VL
notes: humanized
Turning to B7, the response in experiment [14] was half-maximal at 0.188 nM (EC50). This molecule returned an IC50 in [8] of 0.163 mg/L. Moreover, it took 0.015 mg/L to reach a half-maximal effect in [15] (EC50). The IC50 in experiment [9] amounted to 0.029 mg/L. In experiment [6], this molecule gave a Kd of 0.444 nM, a koff of 0.000966 s⁻¹ and a kon of 2.18e+06 M⁻¹ s⁻¹.

B8: Hu47C6A3-1 (antibody, V domains shown)
VH: B6 VH with R72V
VL: B6 VL
notes: humanized
Take B8: the EC50 in experiment [10] turned out to be 0.00963 mg/L. The half-maximal effective concentration (EC50) in experiment [14] is 0.291 nM. Further, in experiment [11], inhibition was half-maximal at 0.141 mg/L (IC50). Further, in [6], the dissociation constant (Kd) was 0.48 nM, the koff is 0.000593 s⁻¹ and the kon stood at 1.24e+06 M⁻¹ s⁻¹. Moreover, half-maximal inhibition in [12] (IC50) was put at 0.0349 mg/L.
